{"source": "paper PMC6943441", "about": "“The Meta-Position of Phe^4 in Leu-Enkephalin Regulates Potency, Selectivity, Functional Activity, and Signaling Bias at the Delta and Mu Opioid Receptors” (Molecules, 2019)", "binders": {"B1": {"name": "DADLE (peptide)", "chain": "YAGFL"}}, "target": "mu opioid receptor (Homo sapiens), P35372", "sequence (P35372 whole entry)": "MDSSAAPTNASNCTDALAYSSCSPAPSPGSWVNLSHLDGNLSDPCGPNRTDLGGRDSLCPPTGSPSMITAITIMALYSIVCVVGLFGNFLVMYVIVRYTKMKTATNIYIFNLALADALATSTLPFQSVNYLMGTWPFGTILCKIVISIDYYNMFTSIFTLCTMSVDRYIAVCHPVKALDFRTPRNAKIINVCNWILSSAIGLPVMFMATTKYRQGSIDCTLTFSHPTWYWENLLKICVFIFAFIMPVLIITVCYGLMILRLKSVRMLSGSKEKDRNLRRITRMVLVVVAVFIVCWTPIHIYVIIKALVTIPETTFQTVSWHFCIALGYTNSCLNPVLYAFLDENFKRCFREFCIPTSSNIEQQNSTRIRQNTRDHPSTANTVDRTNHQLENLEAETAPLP", "assay": "competition", "conditions": "modification not given", "data": [{"binder": "B1", "values": [{"measurement": "Ki", "result": 1.58, "unit": "nM"}]}]}
